These results are taken from patent US20190352390A1.

The experiment addresses IL-37 expressed by splenocytes of IL-37 transgenic (IL-37tg) mice (human), Q9NZH6. Put plainly: cell-based or functional assay.

Sequence of IL-37 expressed by splenocytes of IL-37 transgenic (IL-37tg) mice (human), Q9NZH6 (Q9NZH6 whole entry): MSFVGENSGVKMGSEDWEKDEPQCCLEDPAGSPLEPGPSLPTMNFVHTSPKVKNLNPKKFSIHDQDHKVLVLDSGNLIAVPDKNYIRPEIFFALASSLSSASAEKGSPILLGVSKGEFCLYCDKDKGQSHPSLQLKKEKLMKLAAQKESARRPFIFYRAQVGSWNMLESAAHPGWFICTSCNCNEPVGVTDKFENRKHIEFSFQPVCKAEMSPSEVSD

B1: Antibody RF3 (antibody, V domains shown)
VL: DVVMTQTPLSLPVSLGDQASISCRSSQSLVHSNGNTYLHWYLQKPGQSPKLLIYIVSNRFSGVPDRFGGSGSGTDFTLKISRVEAEDLGVYFCSQSTHIPYTFGGGTKLEMK
VH: QVQLQQPGAELVRPGASVKLSCKASGYTFTNYWMNWWKQRPGQGLEWIGMIDPSDSETHYNQVFKDKATLTVDISSTTAYMHLSSLTSEDSAVYYCARDFGWGQGTLVTVSA
Regarding B1, the IL-6 abundance in supernatant of LPS-stimulated IL-37tg mouse splenocytes (ELISA) is less than 40%.

B2: Antibody RF1 (antibody, V domains shown)
VL: DVVMTQTPLSLPVSLGDQASMSCRSSQSLVHSNGDSYLHWYLQKPGQSPKLLIYKVSNRLSGVPDRFSGSGSGTDFTLKISRVEAEDLGIYFCSQSTHVPYTFGGGTKLEIK
VH: QVQLQQPGAELVKPGASVKMSCKASGYTFTNYWLHWVMQRPGQGLEWIGMIDPSDSFTTYNQKFKGKATLTVDTSSSTAFMQLSSLTSEDSAVYYCTTVDHWGRGTTLTVSS
B2 displayed an IL-6 abundance in supernatant of LPS-stimulated IL-37tg mouse splenocytes (ELISA) of less than 40%.
